Laboratory results published in article PMC12396273.

Key:
Assay in all cases: fluorescence polarisation
[1] = biological target: Human BCL-2 removing the C-terminal 32 residues, C-terminal 6×His-tag (human) (UniProt P10415)
[2] = biological target: Human BCL-XL removing the C-terminal 22 residues, C-terminal 6×His-tag (human) (UniProt Q07817)
[3] = biological target: FITC-labelled HRK-BH3 peptide

Chain of UniProt Q07817 (Q07817 1-211): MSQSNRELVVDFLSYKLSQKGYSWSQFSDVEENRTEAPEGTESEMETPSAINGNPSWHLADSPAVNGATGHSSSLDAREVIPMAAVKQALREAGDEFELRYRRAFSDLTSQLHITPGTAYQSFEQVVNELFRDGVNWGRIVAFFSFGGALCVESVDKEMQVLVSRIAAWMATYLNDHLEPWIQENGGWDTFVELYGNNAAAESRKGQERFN

Ki [1] [nM] | Ki [2] [nM] | EC50 [3] [nM] | Substance
36 | 1.8 |  | wild-type HRK-BH3 peptide (HRK-WT)
 |  | 30 | Human BCL-2 removing the C-terminal 32 residues, C-terminal 6×His-tag (from UniProt P10415 1-207) (domain or fragment)
